Legend:
Assay in all cases: receptor-Fc IP
VEGFR-2-Fc = molecular target: T1, VEGFR-2-Fc (UniProt P35968 20-322)
T1 construct: domain: first 3 Ig domains; conditioned supernatant of 293T cells; also called VEGFR-2-Fc fusion protein; not shown: Fc fragment of the pIg vector
Procedure, shortened: (§1)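 fusion protein at 400 ng/ml in an IP mix (PBS, 1.5% BSA, 0.06% Tween 20, 3 μg/ml heparin) was combined with sample supernatant at a 1:2 ratio. Bound ligand captured by immunoprecipitation with pentahistidine antibody.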

VEGFR-1-Fc = molecular target: T2, VEGFR-1-Fc (UniProt P17948 27-338)
T2 construct: domain: first three Ig domains; expressed in Drosophila S2 cells, purified on Protein A sepharose; also called VEGFR-1-Fc fusion protein; not shown: Fc fragment from the Signal-pIgPlus vector
T2 sequence (P17948 27-338): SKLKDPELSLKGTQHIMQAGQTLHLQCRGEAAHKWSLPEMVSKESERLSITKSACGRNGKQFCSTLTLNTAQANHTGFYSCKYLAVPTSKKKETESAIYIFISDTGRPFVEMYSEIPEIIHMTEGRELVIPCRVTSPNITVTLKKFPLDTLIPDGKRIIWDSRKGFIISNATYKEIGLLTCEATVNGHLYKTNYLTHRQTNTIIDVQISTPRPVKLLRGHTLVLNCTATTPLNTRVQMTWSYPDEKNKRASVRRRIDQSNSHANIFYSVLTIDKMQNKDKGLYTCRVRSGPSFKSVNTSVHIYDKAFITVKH
Procedure, shortened: as §1

VEGFR-3-Fc = molecular target: T3, VEGFR-3-Fc (UniProt P35916 25-328)
T3 construct: domain: first three Ig domains; conditioned supernatant of 293T cells; also called VEGFR-3-Fc fusion protein; not shown: Fc fragment of the pIg vector
T3 sequence (looked up): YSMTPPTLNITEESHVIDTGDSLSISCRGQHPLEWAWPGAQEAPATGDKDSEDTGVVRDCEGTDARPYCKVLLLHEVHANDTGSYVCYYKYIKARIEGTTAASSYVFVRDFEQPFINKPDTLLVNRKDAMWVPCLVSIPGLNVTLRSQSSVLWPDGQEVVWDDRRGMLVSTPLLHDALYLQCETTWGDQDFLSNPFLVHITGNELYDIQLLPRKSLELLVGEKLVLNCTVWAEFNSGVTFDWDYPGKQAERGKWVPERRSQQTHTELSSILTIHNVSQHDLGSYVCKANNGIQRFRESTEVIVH
Procedure, shortened: as §1

Measured: binding result

T1 sequence (P35968 20-322): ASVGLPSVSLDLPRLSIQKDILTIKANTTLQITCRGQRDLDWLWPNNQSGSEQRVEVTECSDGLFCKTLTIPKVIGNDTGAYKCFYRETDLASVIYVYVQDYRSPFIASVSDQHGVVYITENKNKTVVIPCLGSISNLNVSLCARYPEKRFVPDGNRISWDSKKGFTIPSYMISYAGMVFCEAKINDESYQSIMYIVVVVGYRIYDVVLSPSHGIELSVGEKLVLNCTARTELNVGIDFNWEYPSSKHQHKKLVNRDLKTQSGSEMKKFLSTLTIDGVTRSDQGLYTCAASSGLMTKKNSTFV

B1: 44-11 (ligand)
chain: AHYNTEILKFMDVYQRSYCHPREVCIDVGKEFGVATNTFFKPSCVPLMRCGGCCNSEGLQCVPTEESNITMQIMRITVPLSQGPKPVTISFLQHNKCECRPKKD
no binding: all assays above

B2: 44-13 (ligand)
chain: AHYNTEILKFMDVYQRSYCHPREVCIDVGKEFGVATNTFFKPSCVPLMRCGGCCNDEGLECVPTEESNITMQIMRITVPLSQGPKPVTISFANHTSCRCMSKLD
no binding: all assays above

B3: 44-15 (ligand)
chain: AHYNTEILKFMDVYQRSYCHPREVCIDVGKEFGVATNTFFKPSCVPLMRCGGCCNSEGLQCVPTEESNITMQIMRITVPLSQGPKPVTISFANHTSCRCMSKLD
no binding: all assays above

B4: 64-1 (ligand)
chain: GQNHHEVVKFMDVYQRSYCHPREVCIDVGKEFGVATNTFFKPSCVPLMRCGGCCNDEGLECVPTEESNITMQIMRIKPHQGQHIGEMSFLQHNKCECRPKKD
no binding: all assays above

B5: 64-3 (ligand)
chain: GQNHHEVVKFMDVYQRSYCHPREVCIDVGKEFGVATNTFFKPSCVPLMRCGGCCNSEGLQCVPTEESNITMQIMRIKPHQGQHIGEMSFLQHNKCECRPKKD
no binding: all assays above

B6: 64-5 (ligand)
chain: GQNHHEVVKFMDVYQRSYCHPREVCIDVGKEFGVATNTFFKPSCVPLMRCGGCCNDEGLECVPTEESNITMQIMRIKPHQGQHIGEMSFANHTSCRCMSKLD
no binding: all assays above

B7: 54-9 (ligand)
chain: AHYNTEILKSIDNEWRKTQCMPIETLVDIFQEFGVATNTFFKPSCVPLMRCGGCCNDEGLECVPTEESNITMQIMRITVPLSQGPKPVTISFLQHNKCECRPKKD
no binding: all assays above

B8: 54-11 (ligand)
chain: AHYNTEILKSIDNEWRKTQCMPIETLVDIFQEFGVATNTFFKPSCVPLMRCGGCCNSEGLQCVPTEESNITMQIMRITVPLSQGPKPVTISFLQHNKCECRPKKD
no binding: all assays above

B9: 54-15 (ligand)
chain: AHYNTEILKSIDNEWRKTQCMPIETLVDIFQEFGVATNTFFKPSCVPLMRCGGCCNSEGLQCVPTEESNITMQIMRITVPLSQGPKPVTISFANHTSCRCMSKLD
no binding: all assays above

B10: 54-13 (ligand)
chain: AHYNTEILKSIDNEWRKTQCMPIETLVDIFQEFGVATNTFFKPSCVPLMRCGGCCNDEGLECVPTEESNITMQIMRITVPLSQGPKPVTISFANHTSCRCMSKLD
no binding: all assays above

B11: 54-10 (ligand)
chain: AHYNTEILKSIDNEWRKTQCMPIETLVDIFQEFGVATNTFFKPSCVPLMRCGGCCNDEGLECMNTSTSYLSKTLFEITVPLSQGPKPVTISFLQHNKCECRPKKD
no binding: all assays above

B12: 54-1 (ligand)
chain: AHYNTEILKSIDNEWRKTQCMPIETLVDIFQEFGVATNTFFKPSCVPLMRCGGCCNDEGLECVPTEESNITMQIMRIKPHQGQHIGEMSFLQHNKCECRPKKD
no binding: all assays above

B13: 54-3 (ligand)
chain: AHYNTEILKSIDNEWRKTQCMPIETLVDIFQEFGVATNTFFKPSCVPLMRCGGCCNSEGLQCVPTEESNITMQIMRIKPHQGQHIGEMSFLQHNKCECRPKKD
no binding: all assays above

B14: 64-2 (ligand)
chain: GQNHHEVVKFMDVYQRSYCHPREVCIDVGKEFGVATNTFFKPSCVPLMRCGGCCNDEGLECMNTSTSYLSKTLFEIKPHQGQHIGEMSFLQHNKCECRPKKD
no binding: all assays above

B15: 64-4 (ligand)
chain: GQNHHEVVKFMDVYQRSYCHPREVCIDVGKEFGVATNTFFKPSCVPLMRCGGCCNSEGLQCMNTSTSYLSKTLFEIKPHQGQHIGEMSFLQHNKCECRPKKD
no binding: all assays above

B16: 44-10 (ligand)
chain: AHYNTEILKFMDVYQRSYCHPREVCIDVGKEFGVATNTFFKPSCVPLMRCGGCCNDEGLECMNTSTSYLSKTLFEITVPLSQGPKPVTISFLQHNKCECRPKKD
no binding: all assays above

B17: 44-16 (ligand)
chain: AHYNTEILKFMDVYQRSYCHPREVCIDVGKEFGVATNTFFKPSCVPLMRCGGCCNSEGLQCMNTSTSYLSKTLFEITVPLSQGPKPVTISFANHTSCRCMSKLD
no binding: all assays above

B18: 44-12 (ligand)
chain: AHYNTEILKFMDVYQRSYCHPREVCIDVGKEFGVATNTFFKPSCVPLMRCGGCCNSEGLQCMNTSTSYLSKTLFEITVPLSQGPKPVTISFLQHNKCECRPKKD
no binding: all assays above
